The text below walks through data of patent publication EP4748858A1 (Nanjing Probio Biotech Co., Ltd., dated 2026).

Assay [1] deals with T1, recombinant protein of the human CD7 extracellular domain, CD7-His (human, UniProt P09564 26-180).
T1 construct: range 25-645; also called human CD7-His protein; recombinant human CD7; not shown: His protein tag
T1 sequence (looked up): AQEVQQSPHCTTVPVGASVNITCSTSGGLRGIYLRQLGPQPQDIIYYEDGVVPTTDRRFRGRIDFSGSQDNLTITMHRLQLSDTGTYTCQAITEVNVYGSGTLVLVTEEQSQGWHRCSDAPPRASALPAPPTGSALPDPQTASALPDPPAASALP
Description: SPR Biacore T200, antibody captured via Fc, human CD7 as analyte.

Assay [2] deals with T2, human CD7 expressed on cells (human, UniProt P09564 26-240).
T2 sequence (looked up): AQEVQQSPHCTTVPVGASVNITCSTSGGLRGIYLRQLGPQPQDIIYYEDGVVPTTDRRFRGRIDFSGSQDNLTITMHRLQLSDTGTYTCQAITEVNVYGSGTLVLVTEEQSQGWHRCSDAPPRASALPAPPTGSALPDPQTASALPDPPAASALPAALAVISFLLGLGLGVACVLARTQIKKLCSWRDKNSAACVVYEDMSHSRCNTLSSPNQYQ
Description: cell-based or functional assay.

Assay [3] has as its target T2, human CD7 expressed on cells. As to the kind of experiment: cell-based or functional assay. This is another data set of the same source.
Assay [4] deals with T3, mouse CD7 (ACROBiosystems, CD7-M52H3) (mouse, UniProt P50283 24-150).
T3 construct: Bought recombinant protein; also called Mouse CD7 protein
T3 sequence (looked up): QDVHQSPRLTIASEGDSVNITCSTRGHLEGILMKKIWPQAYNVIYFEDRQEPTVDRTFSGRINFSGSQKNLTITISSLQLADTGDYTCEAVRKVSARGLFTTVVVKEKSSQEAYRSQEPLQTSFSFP
As to the kind of experiment: indirect ELISA, plate coated with 1 µg/ml mouse CD7.

Assay [5] deals with T1, recombinant protein of the human CD7 …. Description: indirect ELISA, plate coated with 1 µg/ml human CD7, anti-human IgG Fc-HRP.

B1: AHP19484-VHH3 (Fc fusion)
chain: QVQLVESGGGLVKPGGSLRLSCAASGSSFHFAFMGWYRQAPGKQRELVADISPGNSTNYADPVKGRFTISRDNAKNSLYLQMNSLRAEDTAVYFCRDLRSWGAWGQGTLVTVSS
notes: Humanized VHH of AHP19484 expressed as fusion to human IgG1 Fc; not shown: human IgG1 Fc of expression vector pcDNA3.4-Fc (Human IgG1)
B1: in assay [1], the dissociation constant (Kd) is 0.118 nM, the koff turned out to be 5.19e-05 s⁻¹ and the kon is 440000 M⁻¹ s⁻¹.

B2: AHP19485-VHH1 CAR (other)
chain: EVQLVESGGGLVQPGGSLRLSCAASERIFSIHAMGWYRQAPGKQRELVSSITIGGSTHYADSVKGRFTISRDNSKNTLYLQMNSLRAEDTAVYYCNSMLLAGTVGGSWGQGTLVTVSSGGGSGGGSGGGSGGGSEVQLVESGGGLVQPGGSLRLSCAASERIFSIHAMGWYRQAPGKQRELVSSITIGGSTHYADSVKGRFTISRDNSKNTLYLQMNSLRAEDTAVYYCNSMLLAGTVGGSWGQGTLVTVSSAAADYKDDDDKIEVMYPPPYLDNEKSNGTIIHVKGKHLCPSPLFPGPSKPFWVLVVVGGVLACYSLLVTVAFIIFWVRSKRSRLLHSDYMNMTPRRPGPTRKHYQPYAPPRDFAAYRSRVKFSRSADAPAYQQGQNQLYNELNLGRREEYDVLDKRRGRDPEMGGKPRRKNPQEGLYNELQKDKMAEAYSEIGMKGERRRGKGHDGLYQGLSTATKDTYDALHMQALPPR
Regarding B2, in assay [2], the “% Cytotoxicity of CAR-T cells against Jurkat/Luc, E/T = 1 : 1” value was found to be 29.7%; the “% Cytotoxicity of CAR-T cells against Jurkat/Luc, E/T = 5 : 1” value worked out at 86%; the “% Cytotoxicity of CAR-T cells against Jurkat/Luc, E/T = 20 : 1” value was found to be 99.4%. Moreover, in assay [3], the “% Cytotoxicity of CAR-T cells against CCRF-CEM/Luc, E/T = 1 : 1” value is 57.4%; the “% Cytotoxicity of CAR-T cells against CCRF-CEM/Luc, E/T = 5 : 1” value was 61.2%; the “% Cytotoxicity of CAR-T cells against CCRF-CEM/Luc, E/T = 20 : 1” value turned out to be 78.2%.

B3: AHP19484-VHH3 CAR (other)
chain: QVQLVESGGGLVKPGGSLRLSCAASGSSFHFAFMGWYRQAPGKQRELVADISPGNSTNYADPVKGRFTISRDNAKNSLYLQMNSLRAEDTAVYFCRDLRSWGAWGQGTLVTVSSGGGSGGGSGGGSGGGSQVQLVESGGGLVKPGGSLRLSCAASGSSFHFAFMGWYRQAPGKQRELVADISPGNSTNYADPVKGRFTISRDNAKNSLYLQMNSLRAEDTAVYFCRDLRSWGAWGQGTLVTVSSAAADYKDDDDKIEVMYPPPYLDNEKSNGTIIHVKGKHLCPSPLFPGPSKPFWVLVVVGGVLACYSLLVTVAFIIFWVRSKRSRLLHSDYMNMTPRRPGPTRKHYQPYAPPRDFAAYRSRVKFSRSADAPAYQQGQNQLYNELNLGRREEYDVLDKRRGRDPEMGGKPRRKNPQEGLYNELQKDKMAEAYSEIGMKGERRRGKGHDGLYQGLSTATKDTYDALHMQALPPR
With B3, in assay [2], the “% Cytotoxicity of CAR-T cells against Jurkat/Luc, E/T = 1 : 1” value was found to be 60.5%; the “% Cytotoxicity of CAR-T cells against Jurkat/Luc, E/T = 5 : 1” value is 94.5%; the “% Cytotoxicity of CAR-T cells against Jurkat/Luc, E/T = 20 : 1” value turned out to be 100%. In assay [3], the “% Cytotoxicity of CAR-T cells against CCRF-CEM/Luc, E/T = 1 : 1” value is 69.7%; the “% Cytotoxicity of CAR-T cells against CCRF-CEM/Luc, E/T = 5 : 1” value was found to be 64.9%; the “% Cytotoxicity of CAR-T cells against CCRF-CEM/Luc, E/T = 20 : 1” value was 94.1%.

B4: AHP19509-VHH1 CAR (other)
chain: EVQLVESGGGLVQPGGSLRLSCAASGGTFNRYTMGWFRQAPGKEREFVSAISWSGGSTDYADSVKGRFTISRDNSKNTLYLQMNSLRAEDTAVYYCDTDRMPYRPVAAGILSWEANWGQGTLVTVSSGGGSGGGSGGGSGGGSEVQLVESGGGLVQPGGSLRLSCAASGGTFNRYTMGWFRQAPGKEREFVSAISWSGGSTDYADSVKGRFTISRDNSKNTLYLQMNSLRAEDTAVYYCDTDRMPYRPVAAGILSWEANWGQGTLVTVSSAAADYKDDDDKIEVMYPPPYLDNEKSNGTIIHVKGKHLCPSPLFPGPSKPFWVLVVVGGVLACYSLLVTVAFIIFWVRSKRSRLLHSDYMNMTPRRPGPTRKHYQPYAPPRDFAAYRSRVKFSRSADAPAYQQGQNQLYNELNLGRREEYDVLDKRRGRDPEMGGKPRRKNPQEGLYNELQKDKMAEAYSEIGMKGERRRGKGHDGLYQGLSTATKDTYDALHMQALPPR
Turning to B4, in assay [2], the “% Cytotoxicity of CAR-T cells against Jurkat/Luc, E/T = 1 : 1” value stood at 62.4%; the “% Cytotoxicity of CAR-T cells against Jurkat/Luc, E/T = 5 : 1” value turned out to be 93%; the “% Cytotoxicity of CAR-T cells against Jurkat/Luc, E/T = 20 : 1” value is 99.6%. For the same molecule, in assay [3], the “% Cytotoxicity of CAR-T cells against CCRF-CEM/Luc, E/T = 1 : 1” value came out at 74.8%; the “% Cytotoxicity of CAR-T cells against CCRF-CEM/Luc, E/T = 5 : 1” value was 60.2%; the “% Cytotoxicity of CAR-T cells against CCRF-CEM/Luc, E/T = 20 : 1” value was found to be 84.6%.

B5: AHP19485-VHH1 (Fc fusion)
chain: EVQLVESGGGLVQPGGSLRLSCAASERIFSIHAMGWYRQAPGKQRELVSSITIGGSTHYADSVKGRFTISRDNSKNTLYLQMNSLRAEDTAVYYCNSMLLAGTVGGSWGQGTLVTVSS
notes: Humanized VHH of AHP19485 expressed as fusion to human IgG1 Fc; not shown: human IgG1 Fc of expression vector pcDNA3.4-Fc (Human IgG1)
Turning to B5, in assay [1], the Kd was 0.131 nM, the koff is 3.18e-05 s⁻¹ and the kon came to 243000 M⁻¹ s⁻¹.

B6: AHP19481 (Fc fusion)
chain: AVQLVDSGGGLVQPGGSLRLSCAASGFTFSGFAMSWYRQAPGKERELVATISRFGESSNYEDSVKGRFTISRDNAKDTGYLQMNSLKPEDTAVYYCNAEAPAGSLWYGNNYWGQGTQVTVSS
notes: Alpaca VHH expressed as fusion to human IgG1 Fc; not shown: human IgG1 Fc of expression vector pcDNA3.4-Fc (HuIgG1)
For B6, in assay [4], the binding result is “no binding (tested: 8 µg/ml (about 100 nM))”. Further, the EC50 in assay [5] stood at 0.238 nM.

B7: AHP19472 (Fc fusion)
chain: AVQLVDSGGGLVQPGGSLGLSCAASGFTFSGFDMSWYRQAPGKERMLVATITRFGGSSNYEDSVKGRFTISRDNARDTVYLQMNSLKPEDTAMYYCHAEAPAGSLWFGNNYWGQGTQVTVSS
notes: Alpaca VHH expressed as fusion to human IgG1 Fc in HEK293-6E; not shown: human IgG1 Fc of expression vector pcDNA3.4-Fc (HuIgG1)
Turning to B7, the binding result in assay [4] is “no binding (tested: 8 µg/ml (about 100 nM))”. In addition, in assay [5], the EC50 came out at 0.179 nM.

B8: AHP19490 (Fc fusion)
chain: QVQLVESGGGLVQPGGSLRLSCAASGFTFSGFDMSWYRQAPGKERELVATISRFGGSSNYEDSVKGRFTISRDNVKDTVYLQMNSLKPEDTAVYYCYALAPAGSLWHGDNYWGQGTQVTVSS
notes: as for B6
Turning to B8, the binding result in assay [4] is “no binding (tested: 8 µg/ml (about 100 nM))”. In assay [5], the half-maximal effective concentration (EC50) is 0.268 nM.

B9: AHP19508 (Fc fusion)
chain: AVQLVDSGGGLVQPGGSLRLSCAASGDFARLYEMAWYRQTPGQQREVVAQITVGGSTKYADSVKGRFTISRDSAKNTVYLQMNSLRPEDTAVYYCHAWPALWGQGTQVTVSS
notes: as for B6
In the case of B9, the binding result in assay [4] is listed as “no binding (tested: 8 µg/ml (about 100 nM))”. Further, the EC50 in assay [5] was 0.2 nM.

B10: VHH6 CAR (other)
chain: DVQLQESGGGLVQAGGSLRLSCAVSGYPYSSYCMGWFRQAPGKEREGVAAIDSDGRTRYADSVKGRFTISQDNAKNTLYLQMNRMKPEDTAMYYCAARFGPMGCVDLSTLSFGHWGQGTQVTVSITGGGGSGGGGSGGGGSGGGGSDVQLQESGGGLVQAGGSLRLSCAVSGYPYSSYCMGWFRQAPGKEREGVAAIDSDGRTRYADSVKGRFTISQDNAKNTLYLQMNRMKPEDTAMYYCAARFGPMGCVDLSTLSFGHWGQGTQVTVSITAAADYKDDDDKIEVMYPPPYLDNEKSNGTIIHVKGKHLCPSPLFPGPSKPFWVLVVVGGVLACYSLLVTVAFIIFWVRSKRSRLLHSDYMNMTPRRPGPTRKHYQPYAPPRDFAAYRSRVKFSRSADAPAYQQGQNQLYNELNLGRREEYDVLDKRRGRDPEMGGKPRRKNPQEGLYNELQKDKMAEAYSEIGMKGERRRGKGHDGLYQGLSTATKDTYDALHMQALPPR
In the case of B10, in assay [2], the “% Cytotoxicity of CAR-T cells against Jurkat/Luc, E/T = 1 : 1” value came out at 43.4%; the “% Cytotoxicity of CAR-T cells against Jurkat/Luc, E/T = 5 : 1” value was found to be 67.2%; the “% Cytotoxicity of CAR-T cells against Jurkat/Luc, E/T = 20 : 1” value amounted to 93.6%. In addition, in assay [3], the “% Cytotoxicity of CAR-T cells against CCRF-CEM/Luc, E/T = 1 : 1” value came to 74.5%; the “% Cytotoxicity of CAR-T cells against CCRF-CEM/Luc, E/T = 5 : 1” value worked out at 51.2%; the “% Cytotoxicity of CAR-T cells against CCRF-CEM/Luc, E/T = 20 : 1” value came out at 71.1%.

B11: AHP19509-VHH1 (Fc fusion)
chain: EVQLVESGGGLVQPGGSLRLSCAASGGTFNRYTMGWFRQAPGKEREFVSAISWSGGSTDYADSVKGRFTISRDNSKNTLYLQMNSLRAEDTAVYYCDTDRMPYRPVAAGILSWEANWGQGTLVTVSS
notes: Humanized VHH of AHP19509 expressed as fusion to human IgG1 Fc; not shown: human IgG1 Fc of expression vector pcDNA3.4-Fc (Human IgG1)
Take B11: in assay [1], the Kd worked out at 0.1 nM, the koff was found to be 3.04e-05 s⁻¹ and the kon was found to be 304000 M⁻¹ s⁻¹.

B12: AHP19511 (Fc fusion)
chain: AVQLVESGGGLVQPGGSLRLSCAASGFTFSNAVIGWYRQAPGKQRELVASITPGGRTTYPDSVKGRFIISRDNAKNTVYLEMNSLKLEDTAVYYCNDFRGLGGYWGQGTQVTVSS
notes: as for B6
With B12, the binding result in assay [4] is “no binding (tested: 8 µg/ml (about 100 nM))”. In assay [5], the EC50 came to 0.166 nM.

B13: AHP19495 (Fc fusion)
chain: AVQLVESGGGLVQPGGSLRLSCAASGFTASRDVMSWYRQPPGKERELVASIFSAGSKETYAESVKGRFTISIDNVKNTVNLQMDNLKPEDTAVYYCHRWPGYWGQGTQVTVSS
notes: as for B6
On to B13, for which the binding result in assay [4] was “no binding (tested: 8 µg/ml (about 100 nM))”. In addition, in assay [5], the EC50 came to 0.158 nM.

B14: AHP19483 (Fc fusion)
chain: AVQLVDSGGGLVQAGGSLTLSCAASGRTFSRYTMGWFRQAPGKERELVASISWSGGSTDYADSVKDRFTISRDNTKNTVYLQMNGLKPEDTAVYYCNTDRMPYRPVVGGILSWEPYWGQGTQVTVTP
notes: as for B6
As for B14, the binding result in assay [4] is recorded as “no binding (tested: 8 µg/ml (about 100 nM))”. Besides, the EC50 in assay [5] worked out at 0.231 nM.
